Data: paper PMC10333884, “Large‐scale phosphomimetic screening identifies phospho‐modulated motif‐based protein interactions” (Molecular Systems Biology, 2023)
One block for each binder: values may come before it.

Tests used:
[1] = target: T1, GGA1 VHS (human), Q9UJY5; assay: fluorescence polarisation; displacement of a FITC-labelled probe peptide (5 nM in the measurement) from the protein domain (1-2 fold over the probe's KD) by a dilution series of unlabelled peptide; room temperature; 50 mM sodium phosphate pH 7.4; KD calculated from the displacement curve; for KPNA4 ARM one probe for each pocket
T1 chain: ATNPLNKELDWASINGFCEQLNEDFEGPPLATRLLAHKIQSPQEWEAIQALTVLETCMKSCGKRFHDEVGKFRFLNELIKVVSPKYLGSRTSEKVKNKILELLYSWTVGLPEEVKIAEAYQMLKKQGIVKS

[2] = target: T2, TSG101 UEV (human), Q99816; assay: FP; settings: modification not given
T2 chain: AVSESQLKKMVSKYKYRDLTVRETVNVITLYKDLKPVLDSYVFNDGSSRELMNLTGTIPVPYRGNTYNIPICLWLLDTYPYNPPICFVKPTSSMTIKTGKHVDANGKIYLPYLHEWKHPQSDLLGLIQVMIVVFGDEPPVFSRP

[3] = target: SNX27 PDZ (human), Q96L92; assay: FP; settings: modification not given
[4] = target: RANBP2 RanBD4 (human); assay: fluorescence polarisation; displacement of a FITC-labelled probe peptide (5 nM in the measurement) from the protein domain (1-2 fold over the probe's KD) by a dilution series of unlabelled peptide; room temperature; 50 mM sodium phosphate pH 7.4; KD calculated from the displacement curve; for KPNA4 ARM one probe for each pocket
[5] = target: MAP1LC3A (human); assay: FP; settings: modification not given

Binder: DLLESPDVGLLKLAS (modifications not checked) [JUN_(59–73), phosphomimetic (E), P05412 59-73]
Kd [1]: 450 µM

Binder: NGCSSPTAPLSPMSP [GJA1 pS]
IC50 [2]: 420 µM

Binder: KYSDDTPLPEPSYKYN (modifications not checked) [DHX38_(260–275), phosphomimetic (E), Q92620 260-275]
Kd [4]: 470 µM

Binder: QNLSRSWHDVQVSSAY [TPD52L2 pS]
IC50 [5]: 60 µM

Binder: ETYYLSDEPLLGPPVG (modifications not checked) [GTSE1_(145–160), phosphomimetic (E), Q9NYZ3 145-160]
Kd [1]: 199 µM

More lines, now with the values ahead:

Kd [1]: 96 µM
Binder: INLFEKEKEMKKSPTS (modifications not checked) [GTSE1_(145–160), wild‐type, Q9NYZ3 145-160]

IC50 [3]: 427 µM
Binder: GMVSSTSFNGG [DAXX pS]

IC50 [2]: 37 µM
Binder: HSGNVEPTAPPYLQES [TMEM55A E]

IC50 [3]: 117 µM
Binder: GMVSETSFNGG [DAXX E]

IC50 [2]: 232 µM
Binder: NGCSSPTAPLEPMSP [GJA1 E]

IC50 [2]: 34 µM
Binder: HSGNVTPTAPPYLQES [TMEM55A pS]

IC50 [5]: 223 µM
Binder: QNLSREWHDVQVSSAY [TPD52L2 E]
